Laboratory results taken from patent publication US20090202980A1 (CROSSBETA BIOSCIENCES B V, published 2009).
Values joined by “and” are separate entries in the source; they are usually repeats but may differ in a detail not shown here. Equal values may be shown once. Each block holds one binder with its values, some of them ahead of it.

B1: tPA K1-GST (kringle 1 domain of human tPA with C-terminal GST tag) (other, UniProt P00750 123-210, looked up)
chain: TRATCYEDQGISYRGTWSTAESGAECTNWNSSALAQKPYSGRRPDAIRLGLGNHNYCRNPDRDSKPWCYVFKAGKYSSEFCSTPACSE
notes: domain: K1; not shown: vector residues and thrombin cleavage site; Schistosoma japonicum glutathion-S-transferase (GST) tag
B2: human factor XII (Hageman factor) (enzyme, UniProt P00748 20-615, looked up)
chain: IPPWEAPKEHKYKAEEHTVVLTVTGEPCHFPFQYHRQLYHKCTHKGRPGPQPWCATTPNFDQDQRWGYCLEPKKVKDHCSKHSPCQKGGTCVNMPSGPHCLCPQHLTGNHCQKEKCFEPQLLRFFHKNEIWYRTEQAAVARCQCKGPDAHCQRLASQACRTNPCLHGGRCLEVEGHRLCHCPVGYTGAFCDVDTKASCYDGRGLSYRGLARTTLSGAPCQPWASEATYRNVTAEQARNWGLGGHAFCRNPDNDIRPWCFVLNRDRLSWEYCDLAQCQTPTQAAPPTPVSPRLHVPLMPAQPAPPKPQPTTRTPPQSQTPGALPAKREQPPSLTRNGPLSCGQRLRKSLSSMTRVVGGLVALRGAHPYIAALYWGHSFCAGSLIAPCWVLTAAHCLQDRPAPEDLTVVLGQERRNHSCEPCQTLAVRSYRLHEAFSPVSYQHDLALLRLQEDADGSCALLSPYVQPVCLPSGAARPSETTLCQVAGWGHQFEGAEEYASFLQEAQVPFLSLERCSAPDVHGSSILPGMLCAGFLEGGTDACQGDSGGPLVCEDQAAERRLTLQGIISWGSGCGDRNKPGVYTDVAYYLAWIREHTVS
notes: also called FXII; fXII
B3: human IAPP amyloid core fragment (ΔhIAPP) (peptide)
peptide: SNNFGAILSS
notes: also called hΔIAPP; human amylin fragment
B4: fibrin peptide 85 (FP13), human fibrin α-chain fragment α148-160 (peptide)
peptide: KRLEVDIDIKIRS
notes: also called fibrin fragment α147-159 FP13
B5: recombinant human β2-glycoprotein I (expressed in insect cells) (other, UniProt P02749 20-345, looked up)
chain: GRTCPKPDDLPFSTVVPLKTFYEPGEEITYSCKPGYVSRGGMRKFICPLTGLWPINTLKCTPRVCPFAGILENGAVRYTTFEYPNTISFSCNTGFYLNGADSAKCTEEGKWSPELPVCAPIICPPPSIPTFATLRVYKPSAGNNSLYRDTAVFECLPQHAMFGNDTITCTTHGNWTKLPECREVKCPFPSRPDNGFVNYPAKPTLYYKDKATFGCHDGYSLDGPEEIECTKLGNWSAMPSCKASCKVPVKKATVVYQGERVKIQEKFKNGMLHGDKVSFFCKNKEKKCSYTEDAQCIDGTIEVPKCFKEHSSLAFWKTDASDVKPC
notes: also called recombinant β2gpi; rβ2gpi
B6: tPA-F-GST (finger domain of human tPA with C-terminal GST tag) (other, UniProt P00750 36-85, looked up)
chain: SYQVICRDEKTQMIYQQHQSWLRPVLRSNRVEYCWCNSGRAQCHSVPVKS
notes: range 1-50; Expressed in 293T or BHK cells; Residues 1-50 count on mature tPA, not on the SwissProt precursor; also called tPA-F domain; F-tPA; not shown: (G)RP vector residues and thrombin cleavage site between domain and GST; Schistosoma japonicum glutathion-S-transferase (GST) tag
B7: tPA-F-EGF-GST (finger and EGF domains of human tPA with C-terminal GST tag) (other, UniProt P00750 36-122, looked up)
chain: SYQVICRDEKTQMIYQQHQSWLRPVLRSNRVEYCWCNSGRAQCHSVPVKSCSEPRCFNGGTCQQALYFSDFVCQCPEGFAGKCCEID
notes: domain: F-EGF; also called F-EGF-tPA; not shown: vector residues and thrombin cleavage site; Schistosoma japonicum glutathion-S-transferase (GST) tag
B8: recombinant tissue-type plasminogen activator (tPA) (enzyme, human, UniProt P00750 36-562, looked up)
chain: SYQVICRDEKTQMIYQQHQSWLRPVLRSNRVEYCWCNSGRAQCHSVPVKSCSEPRCFNGGTCQQALYFSDFVCQCPEGFAGKCCEIDTRATCYEDQGISYRGTWSTAESGAECTNWNSSALAQKPYSGRRPDAIRLGLGNHNYCRNPDRDSKPWCYVFKAGKYSSEFCSTPACSEGNSDCYFGNGSAYRGTHSLTESGASCLPWNSMILIGKVYTAQNPSAQALGLGKHNYCRNPDGDAKPWCHVLKNRRLTWEYCDVPSCSTCGLRQYSQPQFRIKGGLFADIASHPWQAAIFAKHRRSPGERFLCGGILISSCWILSAAHCFQERFPPHHLTVILGRTYRVVPGEEEQKFEVEKYIVHKEFDDDTYDNDIALLQLKSDSSRCAQESSVVRTVCLPPADLQLPDWTECELSGYGKHEALSPFYSERLKEAHVRLYPSSRCTSQHLLNRTVTDNMLCAGDTRSGGPQANLHDACQGDSGGPLVCLNDGRMTLVGIISWGLGCGQKDVPGVYTKVTNYLDWIRDNMRP
notes: Commercial full-length recombinant tPA; also called Alteplase; Actilyse
B9: plasmin (activated plasminogen) (enzyme, UniProt P00747 97-810, looked up)
chain: KVYLSECKTGNGKNYRGTMSKTKNGITCQKWSSTSPHRPRFSPATHPSEGLEENYCRNPDNDPQGPWCYTTDPEKRYDYCDILECEEECMHCSGENYDGKISKTMSGLECQAWDSQSPHAHGYIPSKFPNKNLKKNYCRNPDRELRPWCFTTDPNKRWELCDIPRCTTPPPSSGPTYQCLKGTGENYRGNVAVTVSGHTCQHWSAQTPHTHNRTPENFPCKNLDENYCRNPDGKRAPWCHTTNSQVRWEYCKIPSCDSSPVSTEQLAPTAPPELTPVVQDCYHGDGQSYRGTSSTTTTGKKCQSWSSMTPHRHQKTPENYPNAGLTMNYCRNPDADKGPWCFTTDPSVRWEYCNLKKCSGTEASVVAPPPVVLLPDVETPSEEDCMFGNGKGYRGKRATTVTGTPCQDWAAQEPHRHSIFTPETNPRAGLEKNYCRNPDGDVGGPWCYTTNPRKLYDYCDVPQCAAPSFDCGKPQVEPKKCPGRVVGGCVAHPHSWPWQVSLRTRFGMHFCGGTLISPEWVLTAAHCLEKSPRPSSYKVILGAHQEVNLEPHVQEIEVSRLFLEPTRKDIALLKLSSPAVITDKVIPACLPSPNYVVADRTECFITGWGETQGTFGAGLLKEAQLPVIENKVCNRYEFLNGRVQSTELCAGHLAGGTDSCQGDSGGPLVCFEKDKYILQGVTSWGLGCARPNKPGVYVRVSRFVTWIEGVMRNN

What was measured:
[1] = target: B8; assay: ELISA, immobilized peptide, 10 mM εACA
[2] = target: B2; assay: ELISA, immobilized peptide
[3] = target: T1, Fn F4-5-GST (finger domains 4-5 of human fibronectin with C-terminal GST tag) (human; Schistosoma japonicum, UniProt P02751 182-276); assay: ELISA, immobilized peptide
T1 construct: domain: fibronectin type I domains 4-5; Printed in places as Fn F4-S-GST (a misprint of F4-5); also called Fn F4-S-GST; fibronectin F4-5; not shown: (G)RP vector residues and thrombin cleavage site; Schistosoma japonicum glutathion-S-transferase (GST) tag
T1 sequence (P02751 182-276, tags left off): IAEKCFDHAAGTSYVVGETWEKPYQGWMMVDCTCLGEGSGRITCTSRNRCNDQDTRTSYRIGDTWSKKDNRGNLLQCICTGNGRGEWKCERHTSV

[4] = target: T2, human amyloid-β peptide Aβ(1-40) (human); assay: pull-down with Aβ fibrils, Western blot
T2 construct: also called hAβ(1-40); amyloid-β(1-40)
T2 sequence (peptide, as listed by the source): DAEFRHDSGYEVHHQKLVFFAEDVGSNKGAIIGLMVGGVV
Description: “Control,” medium before the pull-down, “Aβ,” washed amyloid Aβ pellet, after the pull-down, “Sup,” medium after extraction with Aβ. […] MΔIAPP was coated as non-amyloid negative control (Panel E). […] The same sections were incubated with Congo red (Panels I, K, and M) to locate amyloid deposits. Panels N and O: Pull-down assay with insoluble Aβ fibrils and finger domains. […] “Control,” medium before the pull-down, “Aβ,” washed amyloid Aβ pellet, after the pull-down, “Sup,” medium after extraction with Aβ.
Conditioned medium was used for pull-down assays using Aβ and IAPP fibrils, followed by Western blot analyses.

[5] = target: T2, human amyloid-β peptide Aβ(1-40); assay: ELISA, coated ligand, FXII concentration series, 10 mM εACA
Description: (§1) Wells were coated in triplicate. […] Ten μg of the peptides that contain cross-β structure, as well as the negative control peptide MΔIAPP and phosphate-buffered saline (PBS), were spotted in duplicate onto methanol-activated nitrocellulose.

[6] = target: B2; assay: dot blot, 10 µg peptide spotted, 2 nM FXII
Description: Ten μg of the peptides that contain cross-β structure, as well as the negative control peptide mΔIAPP and phosphate-buffered saline (PBS), were spotted in duplicate.

[7] = target: B8; assay: ELISA, 25 µg/ml peptide immobilized on Exiqon plates
[8] = target: B2; assay: ELISA, coated ligand, FXII concentration series, 10 mM εACA
Description: as §1

[9] = target: B7; assay: ELISA, 25 µg/ml peptide immobilized, excess εACA, anti-GST detection
[10] = target: B8; assay: ELISA, tPA immobilized, β2gpi concentration series, detection with antibody 2B2
[11] = target: B2; assay: ELISA, factor XII immobilized, β2gpi concentration series, detection with antibody 2B2
[12] = target: T2, human amyloid-β peptide Aβ(1-40); assay: ELISA, coated ligand, anti-GST detection
Description: FIG. 13. […] “Control,” medium before the pull-down, “Aβ,” washed amyloid Aβ pellet, after the pull-down, “Sup,” medium after extraction with Aβ. […] MΔIAPP was coated as non-amyloid negative control (Panel E). […] The same sections were incubated with Congo red (Panels I, K, and M) to locate amyloid deposits. Panels N and O: Pull-down assay with insoluble Aβ fibrils and finger domains. […] “Control,” medium before the pull-down, “Aβ,” washed amyloid Aβ pellet, after the pull-down, “Sup,” medium after extraction with Aβ.

[13] = target: T2, human amyloid-β peptide Aβ(1-40); assay: ELISA, 25 µg/ml peptide immobilized, excess εACA, anti-GST detection
[14] = target: T2, human amyloid-β peptide Aβ(1-40); assay: ELISA, 25 µg/ml peptide immobilized on Exiqon plates
[15] = target: T3, advanced glycation end product-modified bovine serum albumin, glycated with glucose-6-phosphate (albumin-g6p) (bovine, UniProt P02769 25-607, glycated with glucose-6-phosphate (advanced glycation end products; 59 lysine and 23 arginine residues and the N-terminus are potential glycation sites)); assay: kD of tPA binding to coated albumin-AGE, quoted for the competitive ELISA
T3 construct: adopts cross-β structure; also called albumin-AGE; glycated albumin
T3 sequence (P02769 25-607 limits assumed): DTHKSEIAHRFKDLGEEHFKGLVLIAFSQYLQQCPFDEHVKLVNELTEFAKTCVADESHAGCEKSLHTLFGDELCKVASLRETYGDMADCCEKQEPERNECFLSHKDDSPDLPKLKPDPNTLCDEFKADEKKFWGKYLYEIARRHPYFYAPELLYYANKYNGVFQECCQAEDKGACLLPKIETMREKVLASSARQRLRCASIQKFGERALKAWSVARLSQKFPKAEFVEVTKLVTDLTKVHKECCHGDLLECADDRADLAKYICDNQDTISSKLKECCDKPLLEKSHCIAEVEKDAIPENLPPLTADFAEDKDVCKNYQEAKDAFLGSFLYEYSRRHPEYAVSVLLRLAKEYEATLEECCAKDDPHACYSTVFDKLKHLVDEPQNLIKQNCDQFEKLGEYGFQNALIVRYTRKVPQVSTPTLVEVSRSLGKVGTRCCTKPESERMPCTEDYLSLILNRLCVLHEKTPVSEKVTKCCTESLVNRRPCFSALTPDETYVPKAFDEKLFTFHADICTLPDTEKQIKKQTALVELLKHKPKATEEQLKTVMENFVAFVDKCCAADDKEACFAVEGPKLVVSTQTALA

[16] = target: T2, human amyloid-β peptide Aβ(1-40); assay: ELISA, Aβ coated on plate, tPA overlaid
[17] = target: T2, human amyloid-β peptide Aβ(1-40); assay: kD of tPA binding to coated hAβ(1-40), quoted for the competitive ELISA
[18] = target: T2, human amyloid-β peptide Aβ(1-40); assay: ELISA on Exiqon plates
[19] = target: T2, human amyloid-β peptide Aβ(1-40); assay: ELISA, Aβ coated on plate, plasmin overlaid

binding result [1]: binds | binding result [2]: binds | binding result [3]: binds
Binder: YTIAALLSPYS [amyloid fragment of transthyretin (TTR11)]

Binder: B1
binding result [4]: no binding

Binder: B2
Kd [5]: ~2 nM

Binder: B3
binding result [6]: binds

Binder: B4
Kd [7]: 5 nM | Kd [8]: ~11 nM | Kd [9]: 2 nM

binding result [1]: binds | binding result [2]: binds
Binder: AASIKVAVSADR [laminin α1-chain(2097-2108) amyloid core peptide (LAM12)]

Binder: B5
Kd [10]: 2.3 µg/mL and 51 nM | Kd [11]: 0.9 µg/mL and 20 nM

Binder: B6
binding result [12]: binds

Binder: B7
Kd [13]: 2 nM

Binder: B8
Kd [14]: 2 nM | Kd [15]: 1 nM | Kd [16]: ~7 nM | Kd [17]: 50 nM | Kd [18]: 46 nM

Binder: B9
Kd [19]: 47 nM
